The source of these data is patent US20060140983A1.

The target in this assay is MHC class I (HLA-ABC) on Me275 and Me290 melanoma cells. As to the kind of experiment: cell-based or functional assay.

“purified mouse anti-human HLA-ABC mAb (clone W6/32, DAKO) (antibody)”: the inhibition of specific lysis (4 hour 51Cr release assay) is over 60% and the specific lysis with W6/32 mAb (4 hour 51Cr release assay, E:T ratio 15:1) is 4 % lysis.
